Experimental data from the supplement of paper PMC11246515.
± gives the standard deviation of the averaged measurements.

Experiment: total protein half-life in vivo (active degradation + dilution); higher = more stable protein
[1] = E. coli NCM3722 delta-clpP delta-lon delta-hslV, growth: N-lim chemostat, doubling time 6 h
[2] = E. coli NCM3722 delta-clpP, growth: N-lim chemostat, doubling time 6 h
[3] = E. coli NCM3722 delta-hslV, growth: N-lim chemostat, doubling time 6 h
[4] = E. coli NCM3722 delta-lon, growth: N-lim chemostat, doubling time 6 h
[5] = E. coli NCM3722 delta-smpB, growth: N-lim chemostat, doubling time 6 h
[6] = wild type E. coli NCM3722, growth: C-lim chemostat, doubling time 3 h
[7] = wild type E. coli NCM3722, growth: C-lim chemostat, doubling time 6 h
[8] = wild type E. coli NCM3722, growth: C-lim chemostat, doubling time 12 h
[9] = wild type E. coli NCM3722, growth: N-lim chemostat, doubling time 6 h
[10] = wild type E. coli NCM3722, growth: N-lim chemostat, doubling time 12 h
[11] = wild type E. coli NCM3722, growth: P-lim chemostat, doubling time 6 h
[12] = wild type E. coli NCM3722, growth: P-lim chemostat, doubling time 12 h

Row | Sequence | total protein half-life in vivo [1] [h] | total protein half-life in vivo [2] [h] | total protein half-life in vivo [3] [h] | total protein half-life in vivo [4] [h] | total protein half-life in vivo [5] [h] | total protein half-life in vivo [6] [h] | total protein half-life in vivo [7] [h] | total protein half-life in vivo [8] [h] | total protein half-life in vivo [9] [h] | total protein half-life in vivo [10] [h] | total protein half-life in vivo [11] [h] | total protein half-life in vivo [12] [h]
1 | MLIFEGKEIETDTEGYLKESSQWSEPLAVVIAENEGISLSPEHWEVVRFVRDFYLEFNTSPAIRMLVKAMANKFGEEKGNSRYLYRLFPKGPAKQATKIAGLPKPVKCI [P0AB18] | 4.6 ± 0.063 | 3.82 ± 0.21 | 4.08 ± 0.12 | 6.01 ± 1.2 | 4.08 ± 0.076 | 2.84 ± 0.18 | 5.35 ± 0.47 | 12.8 ± 2.9 | 3.49 ± 0.44 | 6.82 ± 0.45 | 4.73 ± 0.007 | 10.19 ± 0.053
2 | MLIGYVRVSTNDQNTDLQRNALNCAGCELIFEDKISGTKSERPGLKKLLRTLSAGDTLVVWKLDRLGRSMRHLVVLVEELRERGINFRSLTDSIDTSTPMGRFFFHVMGALAEMERELIVERTKAGLETARAQGRIGGRRPKLTPEQWAQAGRLIAAGTPRQKVAIIYDVGVSTLYKRFPAGDK |  | 6.3 |  |  |  |  |  | 5.3 | 6.47 |  | 6.11 | 12.2 ± 1.1
3 | MLIIETLPLLRQQIRRLRMEGKRVALVPTMGNLHDGHMKLVDEAKARADVVVVSIFVNPMQFDRPEDLARYPRTLQEDCEKLNKRKVDLVFAPSVKEIYPNGTETHTYVDVPGLSTMLEGASRPGHFRGVSTIVSKLFNLVQPDIACFGEKDFQQLALIRKMVADMGFDIEIVGVPIMRAKDGLALSSRNGYLTAEQRKIAPGLYKVLSSIADKLQAGERDLDEIITIAGQELNEKGFRADDIQIRDADTLLEVSETSKRAVILVAAWLGDARLIDNKMVELA | 5.42 ± 0.33 | 5.17 ± 0.93 | 4.941 ± 0.045 | 5.34 ± 0.1 | 4.98 ± 0.26 | 3.1 ± 0.28 | 5.5 ± 0.056 | 11.8 ± 2.4 | 4.868 ± 0.016 | 8.38 ± 0.16 | 5.774 ± 0.017 | 12.5 ± 0.45
4 | MLIIKRSVAIIAILFSPLSTASNLTSQLHNFFSAQLAGVSDEVRVSIRTAPNLLPPCEQPLLSMSNNSRLWGNVNVLARCGNDKRYLQVNVQATGNYVVAAMPIARGGKLEAGNVKLKRGRLDTLPPRTVLDINQLVDAISLRDLSPDQPIQLTQFRQAWRVKAGQRVNVIASGDGFSANAEGQALNNAAVAQNARVRMVSGQVVSGVVDADGNILINL |  |  |  |  |  | 0.905 ± 0.37 |  | 2.23 |  |  |  | 
5 | MLIPSKLSRPVRLDHTVVRERLLAKLSGANNFRLALITSPAGYGKTTLISQWAAGKNDIGWYSLDEGDNQQERFASYLIAAVQQATNGHCAICETMAQKRQYASLTSLFAQLFIELAEWHSPLYLVIDDYHLITNPVIHESMRFFIRHQPENLTLVVLSRNLPQLGIANLRVRDQLLEIGSQQLAFTHQEAKQFFDCRLSSPIEAAESSRICDDVSGWATALQLIALSARQNTHSAHKSARRLAGINASHLSDYLVDEVLDNVDLATRHFLLKSAILRSMNDALITRVTGEENGQMRLEEIERQGLFLQRMDDTGEWFCYHPLFGNFLRQRCQWELAAELPEIHRAAAESWMAQGFPSEAIHHALAAGDALMLRDILLNHAWSLFNHSELSLLEESLKALPWDSLLENPQLVLLQAWLMQSQHRYGEVNTLLARAEHEIKDIREDTMHAEFNALRAQVAINDGNPDEAERLAKLALEELPPGWFYSRIVATSVLGEVLHCKGELTRSLALMQQTEQMARQHDVWHYALWSLIQQSEILFAQGFLQTAWETQEKAFQLINEQHLEQLPMHEFLVRIRAQLLWAWARLDEAEASARSGIEVLSSYQPQQQLQCLAMLIQCSLARGDLDNARSQLNRLENLLGNGKYHSDWISNANKVRVIYWQMTGDKAAAANWLRHTAKPEFANNHFLQGQWRNIARAQILLGEFEPAEIVLEELNENARSLRLMSDLNRNLLLLNQLYWQAGRKSDAQRVLLDALKLANRTGFISHFVIEGEAMAQQLRQLIQLNTLPELEQHRAQRILREINQHHRHKFAHFDENFVERLLNHPEVPELIRTSPLTQREWQVLGLIYSGYSNEQIAGELEVAATTIKTHIRNLYQKLGVAHRQDAVQHAQQLLKMMGYGV | 6.02 ± 0.46 |  | 0.718 |  | 0.786 | 0.61 ± 0.1 | 1.05 ± 0.094 | 1.38 ± 0.18 |  | 0.803 |  | 1.36
6 | MLKIFNTLTRQKEEFKPIHAGEVGMYVCGITVYDLCHIGHGRTFVAFDVVARYLRFLGYKLKYVRNITDIDDKIIKRANENGESFVAMVDRMIAEMHKDFDALNILRPDMEPRATHHIAEIIELTEQLIAKGHAYVADNGDVMFDVPTDPTYGVLSRQDLDQLQAGARVDVVDDKRNPMDFVLWKMSKEGEPSWPSPWGAGRPGWHIECSAMNCKQLGNHFDIHGGGSDLMFPHHENEIAQSTCAHDGQYVNYWMHSGMVMVDREKMSKSLGNFFTVRDVLKYYDAETVRYFLMSGHYRSQLNYSEENLKQARAALERLYTALRGTDKTVAPAGGEAFEARFIEAMDDDFNTPEAYSVLFDMAREVNRLKAEDMAAANAMASHLRKLSAVLGLLEQEPEAFLQSGAQADDSEVAEIEALIQQRLDARKAKDWAAADAARDRLNEMGIVLEDGPQGTTWRRK | 5.28 ± 0.8 | 4.75 ± 0.24 | 4.85 ± 0.22 | 5.1 ± 0.24 | 4.97 ± 0.14 | 3.24 ± 0.29 | 5.41 ± 0.088 | 9.907 ± 0.043 | 4.84 ± 0.17 | 7.97 ± 0.15 | 6.14 ± 0.47 | 11.5 ± 0.18
7 | MLKKFRGMFSNDLSIDLGTANTLIYVKGQGIVLNEPSVVAIRQDRAGSPKSVAAVGHDAKQMLGRTPGNIAAIRPMKDGVIADFFVTEKMLQHFIKQVHSNSFMRPSPRVLVCVPVGATQVERRAIRESAQGAGAREVFLIEEPMAAAIGAGLPVSEATGSMVVDIGGGTTEVAVISLNGVVYSSSVRIGGDRFDEAIINYVRRNYGSLIGEATAERIKHEIGSAYPGDEVREIEVRGRNLAEGVPRGFTLNSNEILEALQEPLTGIVSAVMVALEQCPPELASDISERGMVLTGGGALLRNLDRLLMEETGIPVVVAEDPLTCVARGGGKALEMIDMHGGDLFSEE [P0A9X4] |  |  | 6.55 ± 0.53 | 6.29 ± 0.99 | 5.69 ± 0.23 | 3.039 ± 0.01 | 6.72 ± 0.37 | 12.1 ± 0.77 | 6.13 ± 0.39 | 12.1 ± 0.8 | 5.94 ± 0.36 | 12.4 ± 0.42
